Data published in PMC3927129 (Science (New York, N.Y.), 2011).

Molecular target: the molecule itself
Assay: native MS

B1: subunit K of the Enterococcus hirae rotary ATPase (K10 membrane ring) (natural protein)
chain: MMDYLITQNGGMVFAVLAMATATIFSGIGSAKGVGMTGEAAAALTTSQPEKFGQALILQLLPGTQGLYGFVIAFLIFINLGSDMSVVQGLNFLGASLPIAFTGLFSGIAQGKVAAAGIQILAKKPEHATKGIIFAAMVETYAILGFVISFLLVLNA
In the case of B1, the “stoichiometry N” value is reported as 10.
